The values that follow come from the supplement of paper PMC12042874.

± gives the uncertainty stated by the source.

This data set in a line: amyloid nucleation score (Sup35N fusion, yeast selection) (log enrichment); library NNK1; higher = more nucleation; inactive = no reads after selection. The essentials: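 The nucleation score equals the log enrichment of output over input reads from DiMSum, centred on the mode score of non-aggregating sequences. It was computed only for sequences with 100 or more input reads. The reads came from Illumina sequencing of plasmid inserts from psi-negative yeast expressing Sup35N fused to peptides of 20 random codons, induced with 100 μM copper sulfate for 24 hours and grown 7 days at 30°C without adenine and uracil.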
Regarding RKSDEGMKSPIGREIMGKSM, the amyloid nucleation score was found to be 0.431 ± 0.9. The value for RKSVFNTLLFVE was 0.569 ± 0.33. Substance RKYEGGRAKVWHGPCSVS gave an amyloid nucleation score of 1.07 ± 0.76. Turning to RLASYHITVYRHTRSIVQ, the amyloid nucleation score amounted to 0.612 ± 0.29. In turn, RLCIVLSRHMPYTDRMLVMP yielded an amyloid nucleation score of 0.259 ± 0.26.

Consider RLFHIGGRGVRYYRLDVAMH, for which the amyloid nucleation score was -0.264 ± 1.2. The value for RLFLKPAQWPNH was 0.562 ± 0.67; that for RLGRNVNEHRVPLVLACVED was 0.964 ± 0.93; that for RLIENFGPHYRSSPVFDVVV was 1.33 ± 0.79. As for RLIYRCLKSGCVFPWLSRMS, the amyloid nucleation score was -0.571 ± 1.1. Regarding RLLGLHWIT, the amyloid nucleation score is 1.5 ± 0.54. Regarding RLMNRFMPKSLLLLLPVFVR, the amyloid nucleation score result is “inactive”. RLNVQLAGSVGVVWFICNWA registered an amyloid nucleation score of 5.98 ± 0.056. The substance RLPWLRAQNANLVLLLVNRR had an amyloid nucleation score of 4.9 ± 0.074. On to RLRVVL, for which the amyloid nucleation score is -0.537 ± 0.64. The value for RLSHKNGVCTLAFIYVPDNA was “inactive”. RLSSPVSI returned an amyloid nucleation score of 0.028 ± 0.68.

On to RLSSRVIRKNFDYQTFCHED, for which the amyloid nucleation score was 0.414 ± 0.34. As for RLTFVYHRMERVKKDYCS, the amyloid nucleation score result is “inactive”. The value for RLTLLRLVLV was 0.945 ± 0.51. RLVSFKCFCFLFLIDFMQGV: the amyloid nucleation score is 0.495 ± 0.45.

Regarding RLYRWPIWWWVSLSEMGISQ, the amyloid nucleation score is -0.205 ± 0.35.

Consider RLYWWDVMTSNMFVMAFRSR, for which the amyloid nucleation score result is “inactive”. Regarding RMFCPHCDYLVSVFSWNPRC, the amyloid nucleation score came out at 1.54 ± 0.57. The value for RMFWANLQVSVNFGDKRVKY was 4.13 ± 0.091; that for RMIDMGTDTVFCLMSFARIN was -0.354 ± 0.22; that for RMIIYNKYRCNSYLTNMGFG was 2 ± 0.34.

In the case of RMPRCKVFSVFSLLHAQY, the amyloid nucleation score came to 1.35 ± 0.9.

On to RMVGYVRGMAFRRSVSRRIG, for which the amyloid nucleation score worked out at 0.311 ± 0.68.

Turning to RMVIMLMGTHDRPFWGITGS, the amyloid nucleation score was determined as 0.925 ± 0.63. In turn, RNCNTT came in with an amyloid nucleation score of 0.034 ± 0.61. RNIATYYFRSN: the amyloid nucleation score was 0.612 ± 0.48.

In turn, RNKMMWLIICQGPPYRAWSP displayed an amyloid nucleation score of 5.07 ± 0.07. RNNCEMCLGFLS displayed an amyloid nucleation score of 0.827 ± 0.37. The substance RNNIFFF had an amyloid nucleation score of 7.399 ± 0.059.

Substance RNNQSHGMNYFFESCVVFYC yielded an amyloid nucleation score of 7.8 ± 0.047. The value for RNSITEIPCPEMYSNNRLAF was 1.13 ± 0.12; that for RNVRGSSKT was 1.37 ± 0.48; that for RPFLIIKLLGVGLSVKPNCG was -0.158 ± 0.64. The same measure for RPHECRSWAPVRALSGDAHL: 2.91 ± 0.13. In the case of RPNCIVINGVKWYSAYWIGI, the amyloid nucleation score is -0.915 ± 0.67. For RPQYLCAAVHEVQRFGHNR, the amyloid nucleation score was -0.79 ± 0.51.

Substance RPSPEGY returned an amyloid nucleation score of 1.37 ± 0.84. Regarding RPTYMCSGTGDFLHFVFR, the amyloid nucleation score was determined as 4.64 ± 0.053. As for RPVWHSFHMVFWNSASY, the amyloid nucleation score was found to be 0.172 ± 0.45. RQDQLFPICEDSTT displayed an amyloid nucleation score of 0.612 ± 0.97. In the case of RQDVT, the amyloid nucleation score came out at 0.281 ± 0.61.

Take RQGLSAGSRYIK: the amyloid nucleation score was -0.311 ± 0.69. The same measure for RQIGTAFSDYLHGWCVFSFR: 3.88 ± 0.11; for RQSWPGYFVCSYQCVRMGNR: -0.084 ± 0.3; for RRDSYFCVWYFWGPDEGCPF: 4.46 ± 0.1.

In turn, RRFPRMWGLCMSLFRSHCGS registered an amyloid nucleation score of 1.92 ± 0.27. The value for RRIGIGYGLLCRAWAYLYVL was -0.477 ± 1.2.

Consider RRLLTCGGSPYRQLR, for which the amyloid nucleation score was -0.078 ± 0.98. As to RRLSMIMLFNPLSIWCFAQS, the amyloid nucleation score was 0.408 ± 0.5. The same measure for RRSCRRTGGTSASKPSRQAF: 0.013 ± 0.45.

For RRSLYYGITIN, the amyloid nucleation score was -0.337 ± 0.32.
